Experimental data taken from patent US20230338424A1 (LENTIGEN TECHNOLOGY, published 2023).

T1: recombinant human CD123-Fc (human, UniProt P26951 19-305, limits assumed)
T1 construct: Treated as one molecule; also called CD123-Fc peptide (Novoprotein); recombinant IL3R-alpha Fc-tagged; not shown: Fc tag
T1 sequence (looked up): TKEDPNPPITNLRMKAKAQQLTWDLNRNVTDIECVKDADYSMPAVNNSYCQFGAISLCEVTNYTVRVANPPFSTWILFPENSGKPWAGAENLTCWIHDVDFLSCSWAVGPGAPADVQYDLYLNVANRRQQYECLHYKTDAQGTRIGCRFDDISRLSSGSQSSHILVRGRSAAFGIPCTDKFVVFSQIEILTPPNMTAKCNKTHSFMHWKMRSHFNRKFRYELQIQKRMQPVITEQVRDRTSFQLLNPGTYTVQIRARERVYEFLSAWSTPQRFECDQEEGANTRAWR

B1: CAR LTG2078 CD123 M12306 CD8 BBz (other)
chain: EVQLVQSGSELKKPGASVKVSCKASGGTFSSYAISWVRQAPGQGLEWMGGIIPIFGTANYAQKFQGRVTITADESTSTAYMELSSLRSEDTAVYYCASTARRGWDTAGPLDYWGQGTLVTVSSGGGGSGGGGSGGGGSDIQMTQSPSSLSASVGDRVTIACRASQTISRYLNWYQQKPGKAPKLLIYAASSLQSGVSSRFSGSGSGTEFTLTISSLQPEDFATYFCQQTYSPPITFGQGTRLEIKAAATTTPAPRPPTPAPTIASQPLSLRPEACRPAAGGAVHTRGLDFACDIYIWAPLAGTCGVLLLSLVITLYCKRGRKKLLYIFKQPFMRPVQTTQEEDGCSCRFPEEEEGGCELRVKFSRSADAPAYQQGQNQLYNELNLGRREEYDVLDKRRGRDPEMGGKPRRKNPQEGLYNELQKDKMAEAYSEIGMKGERRRGKGHDGLYQGLSTATKDTYDALHMQALPPR
notes: Control chimeric antigen receptor on transduced human primary T cells; Leader (residues 1-22) left out; also called EF-1a CD123 CD8 BBz
B2: CAR D0132 CD123 MB42-E02 CD8 BBz (other)
chain: QVQLVQSGAEVKKPGASVKVSCKASGYTFTSYGISWVRQAPGQGLEWMGWISAYNGNTNYAQKLQGRVTMTTDTSTSTAYMELRSLRSDDTAVYYCARGAYYDFWSGYSWFDPWGQGTLVTVSSGGGGSGGGGSGGGGSQSVLTQPPSVSVAPGQTARIPCGGNNIGSKGVHWYQQKSGQAPVMVVYDDSDRPSGIPERFSGSNSGNTATLTISRVEAGDEADYYCQVWDSSGDLVLFGGGTKLTVLAAATTTPAPRPPTPAPTIASQPLSLRPEACRPAAGGAVHTRGLDFACDIYIWAPLAGTCGVLLLSLVITLYCKRGRKKLLYIFKQPFMRPVQTTQEEDGCSCRFPEEEEGGCELRVKFSRSADAPAYQQGQNQLYNELNLGRREEYDVLDKRRGRDPEMGGKPRRKNPQEGLYNELQKDKMAEAYSEIGMKGERRRGKGHDGLYQGLSTATKDTYDALHMQALPPR
notes: Chimeric antigen receptor on transduced human primary T cells; also called EF-1a-CD123 MB42-E02 CD8 BBz
B3: CAR D0133 CD123 MB42-E12 CD8 BBz (other)
chain: QVQLVQSGAEVKKPGASVKVSCKASGYTFTSYGISWVRQAPGQGLEWMGWISAYNGNTNYAQKLQGRVTMTTDTSTSTAYMELRSLRSDDTAVYYCARGAYYDFWSSYSWFDPWGQGTLVTVSSGGGGSGGGGSGGGGSSYVLTQPPSVSVAPGKTARITCGGNNIGSKSVHWYQQKPGQAPVLVVYDDSDRPSGIPERFSGSNSGNTATLTISRVEAGDEADYYCQVWDSSSDHVVFGGGTKLTVLAAATTTPAPRPPTPAPTIASQPLSLRPEACRPAAGGAVHTRGLDFACDIYIWAPLAGTCGVLLLSLVITLYCKRGRKKLLYIFKQPFMRPVQTTQEEDGCSCRFPEEEEGGCELRVKFSRSADAPAYQQGQNQLYNELNLGRREEYDVLDKRRGRDPEMGGKPRRKNPQEGLYNELQKDKMAEAYSEIGMKGERRRGKGHDGLYQGLSTATKDTYDALHMQALPPR
notes: Chimeric antigen receptor on transduced human primary T cells; also called EF-1a-CD123 MB42-E12 CD8 BBz
B4: CAR D0134 CD123 MB44-H01 CD8 BBz (other)
chain: QVQLVQSGAEVKKPGSSVKVSCKASGGTFSSYAISWVRQAPGQGLEWMGGIIPIFGTANYAQRFQGRVTITADESTSTAYMELSSLRSEDTAVYYCARGLGTSYYYYYMDVWGKGTTVTVSSGGGGSGGGGSGGGGSQSVLTQPPSASGSPGQSVTISCTGTSSDVGGYNYVSWYQQHPGKAPKLMIYEVSNRPSGVSNRFSGSKSGNTASLTISGLQAEDEADYYCSSYTSSSTPVVFGGGTKLTVLAAATTTPAPRPPTPAPTIASQPLSLRPEACRPAAGGAVHTRGLDFACDIYIWAPLAGTCGVLLLSLVITLYCKRGRKKLLYIFKQPFMRPVQTTQEEDGCSCRFPEEEEGGCELRVKFSRSADAPAYQQGQNQLYNELNLGRREEYDVLDKRRGRDPEMGGKPRRKNPQEGLYNELQKDKMAEAYSEIGMKGERRRGKGHDGLYQGLSTATKDTYDALHMQALPPR
notes: Chimeric antigen receptor on transduced human primary T cells; also called EF-1a-CD123 MB44 -H01CD8 BBz
B5: CAR D0130 CD123 MB40-H08 CD8 BBz (other)
chain: QVQLVQSGAEVKKPGSSVKVSCKASGGTFSSYAISWVRQAPGQGLEWMGGIIPIFGTANYAQKFQGRVTITADESTSTAYMELSSLRSEDTAVYYCARNEWYSYYYYYMGVWGKGTTVTVSSGGGGSGGGGSGGGGSQSALTQPASVSGSPGQSITISCTGTSSDVGGYNYVSWYQQHPGKAPKLMIYEVSNRPSGVSNRFSGSKSGNTASLTISGLQAEDEADYYCSSYTSSSTLVVFGGGTKLTVLAAATTTPAPRPPTPAPTIASQPLSLRPEACRPAAGGAVHTRGLDFACDIYIWAPLAGTCGVLLLSLVITLYCKRGRKKLLYIFKQPFMRPVQTTQEEDGCSCRFPEEEEGGCELRVKFSRSADAPAYQQGQNQLYNELNLGRREEYDVLDKRRGRDPEMGGKPRRKNPQEGLYNELQKDKMAEAYSEIGMKGERRRGKGHDGLYQGLSTATKDTYDALHMQALPPR
notes: Chimeric antigen receptor on transduced human primary T cells; also called EF-1a-CD123 MB40-H08 CD8 BBz
B6: CAR D0131 CD123 MB42-D03 CD8 BBz (other)
chain: QVQLVQSGAEVKKPGASVKVSCKASGYTFTSYGISWVRQAPGQGLEWMGWISAYNGNTNYAQKLQGRVTMTTDTSTSTAYMELRSLRSDDTAVYYCARGAYYDFWSSYSWFDPWGQGTLVTVSSGGGGSGGGGSGGGGSSYVLTQPPSVSVAPGKTARITCGGNSIGSKSVQWYQQKPGQAPVLVIYDDSDRPSGIPERFSGSNSGNTATLTISRVEAGDEADYYCQVWDSSSDVVFGGGTKLTVLAAATTTPAPRPPTPAPTIASQPLSLRPEACRPAAGGAVHTRGLDFACDIYIWAPLAGTCGVLLLSLVITLYCKRGRKKLLYIFKQPFMRPVQTTQEEDGCSCRFPEEEEGGCELRVKFSRSADAPAYQQGQNQLYNELNLGRREEYDVLDKRRGRDPEMGGKPRRKNPQEGLYNELQKDKMAEAYSEIGMKGERRRGKGHDGLYQGLSTATKDTYDALHMQALPPR
notes: Chimeric antigen receptor on transduced human primary T cells; also called EF-1a-CD123 MB42-D03 CD8 BBz; CAR123 D0131

The binders below were run against T1, recombinant human CD123-Fc (assay: flow cytometry, CAR T cells stained with recombinant IL3R-alpha Fc-tagged, anti-Fc AF647).
Description: Half million CAR T cells were washed two times in cold AutoMACS buffer supplemented with 0.5% bovine serum albumin (Miltenyi Biotec, Bergisch Gladbach, Germany) and stained with 2.5 ug/ml CD123-Fc peptide (Novoprotein, Summit, NJ), followed by anti Fc-AF647 conjugate (Jackson ImmunoResearch, West Grove, PA). The 7-Aminoactinomycin D staining (7-AAD, BD Biosciences, San Jose, CA) was added to exclude dead cells. Non-transduced cells (UTD) were used as a negative control. Cells were washed twice with AutoMACS buffer supplemented with 0.5% bovine serum albumin, resuspended in 200 ul staining buffer and acquired by flow cytometry. Flow cytometric analysis was performed on a MACSQuant® 10 Analyzer (Miltenyi Biotec), and data plots were generated using FlowJo software (Ashland, OR).
Lentiviral vectors encoding the CD123 CAR constructs were used for CAR transduction into human primary T cells at multiplicity of infection (MOI) of 40. CAR surface expression of transduced T cells by flow cytometry using recombinant IL3R-alpha Fc-tagged, followed by staining with anti-Fc Alexa Flour 647.
B1: binds.
B2: binds.
B3: binds.
B4: binds.
B5: binds.
B6: binds.
